From patent US9605073B2, “Modulation of activity of neurotrophins” (H. Lundbeck, priority 2002, dated 2017)
Read-outs that look alike come from different tables or passages of the source.

How the values were obtained:
[1] = biological target: T1, proNGF binding to Sortilin (Homo sapiens, UniProt Q99523); test: Inhibition of proNGF binding to immobilized Sortilin (BIAcore); conditions: prebound then coinjected, 51 fmol/mm^2 Sortilin
T1 construct: to 51 fmol/mm^2 purified Sortilin extracellular domain (lower panel); made in house; host or cells: Sortilin: stably transfected CHO cells; proNGF: E. coli
T1 sequence (Q99523 78-755 limits assumed): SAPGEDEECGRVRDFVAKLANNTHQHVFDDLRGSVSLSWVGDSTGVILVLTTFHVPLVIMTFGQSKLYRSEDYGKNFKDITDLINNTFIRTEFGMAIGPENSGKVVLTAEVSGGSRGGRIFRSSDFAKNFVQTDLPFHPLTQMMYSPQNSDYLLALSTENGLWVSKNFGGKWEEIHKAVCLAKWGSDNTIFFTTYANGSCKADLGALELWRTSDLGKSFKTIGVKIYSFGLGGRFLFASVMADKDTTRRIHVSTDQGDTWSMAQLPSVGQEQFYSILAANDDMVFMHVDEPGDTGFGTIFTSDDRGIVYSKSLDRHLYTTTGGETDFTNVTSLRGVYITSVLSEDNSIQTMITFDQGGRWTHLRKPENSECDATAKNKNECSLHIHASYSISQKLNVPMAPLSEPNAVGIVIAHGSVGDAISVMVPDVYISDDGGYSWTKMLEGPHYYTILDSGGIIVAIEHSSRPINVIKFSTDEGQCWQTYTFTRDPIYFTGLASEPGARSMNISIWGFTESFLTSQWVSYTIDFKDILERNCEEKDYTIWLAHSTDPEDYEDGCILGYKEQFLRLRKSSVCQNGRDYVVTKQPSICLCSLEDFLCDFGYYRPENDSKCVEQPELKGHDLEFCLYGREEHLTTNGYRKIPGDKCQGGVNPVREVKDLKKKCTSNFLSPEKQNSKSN
Procedure: FIG. 6: Inhibition of proNGF binding to immobilized Sortilin by RAP (receptor-associated protein), the propeptide of proNGF, and the Sortilin propeptide. The inhibitors were prebound to Sortilin followed by coinjection with 200 nM proNGF. […] Maximal proNGF binding is measured without preincubation with the respective inhibitors.

[2] = biological target: T2, Sortilin extracellular domain (Homo sapiens, UniProt Q99523); test: Surface plasmon resonance (BIAcore) binding to immobilized purified Sortilin extracellular domain
T2 construct: purified Sortilin extracellular domain (lower panel); made in house; host or cells: CHO cells (stably transfected)
T2 sequence (Q99523 78-755 limits assumed): T1 sequence (Q99523 78-755 limits assumed)
Procedure: (§1) FIG. 2: Characterization of NGF binding to p75, TrkA, and Sortilin as measured by surface plasmon resonance analysis (BIAcore). Binding of 50-500 nM NGF was measured to 91.5 fmol/mm^2 immobilized p75-IgG-Fc chimeric protein (upper panel), to 66 fmol/mm^2 immobilized TrkA-IgG-Fc (middle panel), and to 51 fmol/mm^2 purified Sortilin extracellular domain (lower panel).
(§2) Mature murine NGF was from Austral Biologicals (San Ramon, Calif.), recombinant human p75 neurotrophin receptor/Fc and human TrkA/Fc chimeras were from R&D systems (Oxon, UK). Human Sortilin was produced in stably transfected CHO-cells and purified as described elsewhere (Munck Petersen et al, EMBO J. (1999) 18:595-604).
as §1, with “3:” for “2:”, “proNGF” for “NGF”, “25-500” for “50-500”
as §1, with “4:” for “2:”, “of” for “of NGF”, “binding of the proNGF propeptide” for “binding”, “25-500” for “50-500”, “propeptide” for “NGF”
FIG. 7: Characterization of proBDNF and BDNF binding to purified Sortilin as measured by surface plasmon resonance (BIAcore). Rat proBDNF was produced in 293 cells as described in Lee, R., Kermani, P., Teng, K. K. & Hempstead, B. L. Regulation of cell survival by secreted proneurotrophins. Science 294, 1945-1948 (2001). and purified from the conditioned medium. Mature recombinant human BDNF was from Promega (#G1491) and the pro-domain of human BDNF fused to GST (glutathione S-transferase) was produced in E. coli and purified by glutathione-sepharose affinity chromatography. Binding of 5-500 nM proBDNF (upper panel), pro-domain of proBDNF (a GST-fusion protein, middle panel) or BDNF (lower panel) was measured to 94 fmol/mm2 immobilized purified Sortilin extracellular domain. The experiment was carried out essentially as described for FIGS. 2-4.
(§3) All the data provided in FIG. 2-7 are obtained by surface plasmon resonance measurements (BIAcore analysis)

[3] = biological target: T3, p75 neurotrophin receptor/Fc (Homo sapiens, UniProt P08138); test: Surface plasmon resonance (BIAcore) binding to immobilized p75-IgG-Fc chimeric protein; conditions: 91.5 fmol/mm^2 immobilized p75-IgG-Fc; for Kd: BIAcore
T3 construct: purchased R&D systems (Oxon, UK)
Procedure: as §1, §2
as §1, with “3:” for “2:”, “proNGF” for “NGF”, “25-500” for “50-500”
as §1, with “4:” for “2:”, “of” for “of NGF”, “binding of the proNGF propeptide” for “binding”, “25-500” for “50-500”, “propeptide” for “NGF”
as §3

TrkA/Fc = test: Surface plasmon resonance (BIAcore) binding to immobilized TrkA-IgG-Fc; set-up: species or system human; conditions: 66 fmol/mm^2 immobilized TrkA-IgG-Fc; for Kd: BIAcore
Procedure: as §1, §2
as §1, with “3:” for “2:”, “proNGF” for “NGF”, “25-500” for “50-500”
as §1, with “4:” for “2:”, “of” for “of NGF”, “binding of the proNGF propeptide” for “binding”, “25-500” for “50-500”, “propeptide” for “NGF”
as §3

[4] = 5-500 nM ligand, 94 fmol/mm2 immobilized purified Sortilin extracellular domain, read-out: Kd for ligand binding to Sortilin
[5] = 51 fmol/mm^2 purified Sortilin extracellular domain, BIAcore, read-out: Kd for binding to Sortilin

T3 sequence (P08138 with tags, fused parts or gaps limits assumed): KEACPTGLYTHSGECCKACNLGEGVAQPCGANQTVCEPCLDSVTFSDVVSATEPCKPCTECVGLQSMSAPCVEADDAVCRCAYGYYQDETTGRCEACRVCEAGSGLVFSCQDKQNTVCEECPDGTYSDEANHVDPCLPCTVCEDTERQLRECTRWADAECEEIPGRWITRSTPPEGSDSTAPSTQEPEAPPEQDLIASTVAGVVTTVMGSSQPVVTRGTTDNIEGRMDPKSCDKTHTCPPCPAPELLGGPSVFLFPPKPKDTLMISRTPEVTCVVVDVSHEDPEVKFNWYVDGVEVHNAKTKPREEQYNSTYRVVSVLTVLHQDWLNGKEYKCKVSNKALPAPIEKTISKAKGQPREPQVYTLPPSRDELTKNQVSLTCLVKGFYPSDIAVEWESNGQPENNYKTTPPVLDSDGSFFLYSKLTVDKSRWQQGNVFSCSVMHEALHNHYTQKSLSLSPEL

In the case of “Sortilin propeptide: Propeptide of Sortilin; SEQ ID NO: 1 amino acid residue 34-77, binds the processed receptor (QDRLDAPPPPAAPLPRWSGPIGVSWGLRAAAAGGAFPRGGRWRR; listed as Homo sapiens)”, the “inhibition of binding of 200 nM proNGF to immobilized Sortilin” value (from here on “inhibition of binding of 200 nM proNGF”) ([1]; inhibitor 5 μM) is reported as ~65%.

Work on “mature BDNF: Mature recombinant human BDNF from Promega (#G1491)” yielded a Kd [2, 4] of ~40 nM and a Kd ([2]; other preparations of mature BDNF, read-out: Kd for ligand binding to Sortilin) of 10 nM.

“proNGF: Human recombinant proNGF produced and purified in E. coli” was tested, and the Kd [2, 5] was ~5 nM, the Kd [3] was ~12 nM and the Kd (TrkA/Fc) was ~15 nM.

B1: NGF: Mature murine NGF from Austral Biologicals (protein)
chain: SSTHPVFHMGEFSVCDSVSVWVGDKTTATDIKGKEVTVLAEVNINNSVFRQYFFETKCRASNPVESGCRGIDSKHWNSYCTTTHTFVKALTTDEKQAAWRFIRIDTACVCVLSRKATRRG
B1 showed a Kd [2, 5] of ~87 nM, a Kd [3] of ~1 nM and a Kd (TrkA/Fc) of ~2 nM.

B2: proNGF propeptide: Human NGF-propeptide expressed in E. Coli; SEQ ID NO: 6 amino acid residue 19-121 (protein, listed as Homo sapiens)
chain: EPHSESNVPAGHTIPQVHWTKLQHSLDTALRRARSAPAAAIAARVAGQTRNITVDPRLFKKRRLRSPRVLFSTQPPREAADTQDLDFEVGGAAPFNRTHRSKR
B2 was tested, and the Kd [2, 5] was ~87 nM, the “binding to p75” value ([3]; 25-500 nM propeptide) was “no detectable binding” and the “inhibition of binding of 200 nM proNGF” value ([1]; inhibitor 5 μM) was ~85%. The “binding to TrkA” value (TrkA/Fc; 25-500 nM propeptide) was “no detectable binding”.

B3: RAP: Receptor-associated protein, cellular protein of about 300 amino acids, SEQ ID NO: 12 (protein, listed as Homo sapiens)
chain: MAPRRVRSFLRGLPALLLLLLFLGPWPAASHGGKYSREKNQPKPSPKRESGEEFRMEKLNQLWEKAQRLHLPPVRLAELHADLKIQERDELAWKKLKLDGLDEDGEKEARLIRNLNVILAKYGLDGKKDARQVTSNSLSGTQEDGLDDPRLEKLWHKAKTSGKFSGEELDKLWREFLHHKEKVHEYNVLLETLSRTEEIHENVISPSDLSDIKGSVLHSRHTELKEKLRSINQGLDRLRRVSHQGYSTEAEFEEPRVIDLWDLAQSANLTDKELEAFREELKHFEAKIEKHNHYQKQLEIAHEKLRHAESVGDGERVSRSREKHALLEGRTKELGYTVKKHLQDLSGRISRARHNEL
For B3, the “inhibition of binding of 200 nM proNGF” value ([1]; inhibitor 10 μM) was ~65%.

B4: proBDNF: Rat proBDNF produced in 293 cells and purified from the conditioned medium (protein)
chain: APMKEANVHGQGNLAYPAVRTHGTLESVNGPRAGSRGLTTTSLADTFEHVIEELLDEDQKVRPNEENHKDADLYTSRVMLSSQVPLEPPLLFLLEEYKNYLDAANMSMRVRRHSDPARRGELSVCDSISEWVTAADKKTAVDMSGGTVTVLEKVPVSKGQLKQYFYETKCNPMGYTKEGCRGIDKRHWNSQCRTTQSYVRALTMDSKKRIGWRFIRIDTSCVCTLTIKRGR
In the case of B4, the Kd [2, 4] is reported as ~3 nM.

B5: GST-pro-domain of proBDNF: Pro-domain of human BDNF fused to GST, produced in E. coli (protein)
chain: APMKEANIRGQGGLAYPGVRTHGTLESVNGPKAGSGLTSLADTFEHVIEELLDEDQKVRPNEENNKDADLYTSRVMLSSQVPLEPPLLFLLEEYKNYLDAANMSMRVRR
modifications: left off: a dimerising Fc or GST
notes: Pro-domain of human BDNF fused to GST, produced in E. coli
Work on B5 yielded a Kd [2, 4] of ~58 nM.
